Data: patent US9879094B2, “Nucleic acid molecules encoding for BACE1 antibodies” (Genentech, Inc., priority 2010, dated 2018)
Several values for one entry are separate records, joined by “and”; a condition that tells them apart may be missing. Equal values may be shown once.

How the values were obtained:
[1] = system: E16.5 cortical neurons and E16.5 hippocampal neurons; test: Aβ40 production in cortical and hippocampal neurons; type: cell-based, mouse; conditions: 24 hours
Procedure: Similar studies were also performed in dorsal root ganglia, cortical neurons and hippocampal neurons isolated from mice. Briefly, dissociated neuronal cultures were prepared from E13.5 dorsal root ganglia (DRG), E16.5 cortical neurons and E16.5 hippocampal neurons. Neurons were grown for five days in vitro. Fresh media containing YW412.8.31 anti-BACE antibody or control IgG1 was incubated with the neurons for 24 hours. Media was harvested and assayed for the presence of Aβ40 using the MSD® Rodent/Human (4G8) A1340 Ultrasensitive kit according to the Manufacturer's instructions. Aβ40 values were normalized for cell viability, as determined using the CellTiter-Glo Luminescent Cell Viability Assay (Promega). The experiment was performed at least three times, and each point was repeated in duplicate. Data was plotted using a four-parameter non-linear regression curve-fitting program (Kaleidagraph, Synergy Software).

[2] = Serum PK in BALB/C and BACE1 knock-out mice; type: in vivo, mouse
Procedure: Additionally, PK data was obtained after dosing with YW412.8.31 anti-BACE1 antibody in wild-type and BACE1 knock-out mice. A single dose of anti-BACE1 (1 or 10 mg/kg) was delivered via IV injection to BALB/C mice. Serum PK was analyzed out to 21 days post-dose.
Total anti-BACE1 antibody concentrations in mouse serum and brain samples were measured as follows. Antibody concentrations in mouse serum and brain samples were measured using an enzyme-linked immunosorbent assay (ELISA). NUNC 384 well Maxisorp immunoplates (Neptune, N.J.) were coated with F(ab′)2 fragment of donkey anti-human IgG, Fc fragment specific polyclonal antibody (Jackson ImmunoResearch, West Grove, Pa.) overnight at 4° C. Plates were blocked with phosphate-buffered saline (PBS) containing 0.5% bovine serum albumin (BSA) for 1 hour at room temperature the next day. Each antibody (Control IgG and anti-BACE1) was used as a standard to quantify the respective antibody concentrations. […] Bound antibody was detected with horseradish peroxidase conjugated F(ab′)2 goat anti-human IgG, Fc specific polyclonal antibody (Jackson ImmunoResearch). […] Absorbance was measured at a wavelength of 450 nm with a reference of 630 nm on a Multiskan Ascent reader (Thermo Scientific, Hudson, N.H.). Concentrations were determined from the standard curve using a four-parameter non-linear regression program. […]

[3] = Antibody concentration in serum and brain of wild-type mice; type: in vivo, mouse
Procedure: Total anti-BACE1 antibody concentrations in mouse serum and brain samples were measured as follows. Antibody concentrations in mouse serum and brain samples were measured using an enzyme-linked immunosorbent assay (ELISA). NUNC 384 well Maxisorp immunoplates (Neptune, N.J.) were coated with F(ab′)2 fragment of donkey anti-human IgG, Fc fragment specific polyclonal antibody (Jackson ImmunoResearch, West Grove, Pa.) overnight at 4° C. Plates were blocked with phosphate-buffered saline (PBS) containing 0.5% bovine serum albumin (BSA) for 1 hour at room temperature the next day. Each antibody (Control IgG and anti-BACE1) was used as a standard to quantify the respective antibody concentrations. After washing plates with PBS containing 0.05% Tween 20 using a microplate washer (Bio-Tek Instruments, Inc., Winooski, Vt.), standards and samples diluted in PBS containing 0.5% BSA, 0.35 M NaCl, 0.25% CHAPS, 5 mM EDTA, 0.05% Tween 20 and 15 ppm Proclin were incubated on plates for 2 hours at room temperature with mild agitation. Bound antibody was detected with horseradish peroxidase conjugated F(ab′)2 goat anti-human IgG, Fc specific polyclonal antibody (Jackson ImmunoResearch). Finally, plates were developed using the substrate 3,3′,5,5′-tetramethyl benzidine (TMB) (KPL, Inc., Gaithersburg, Md.). Absorbance was measured at a wavelength of 450 nm with a reference of 630 nm on a Multiskan Ascent reader (Thermo Scientific, Hudson, N.H.). Concentrations were determined from the standard curve using a four-parameter non-linear regression program.

human BACE2 = target: T1, human BACE2 (Homo sapiens, UniProt Q9Y5Z0); test: MCE assay, BACE2; type: biochemical
T1 construct: the extracellular domain of human BACE2 enzyme (5 nM)
T1 sequence (Q9Y5Z0 63-473 limits assumed): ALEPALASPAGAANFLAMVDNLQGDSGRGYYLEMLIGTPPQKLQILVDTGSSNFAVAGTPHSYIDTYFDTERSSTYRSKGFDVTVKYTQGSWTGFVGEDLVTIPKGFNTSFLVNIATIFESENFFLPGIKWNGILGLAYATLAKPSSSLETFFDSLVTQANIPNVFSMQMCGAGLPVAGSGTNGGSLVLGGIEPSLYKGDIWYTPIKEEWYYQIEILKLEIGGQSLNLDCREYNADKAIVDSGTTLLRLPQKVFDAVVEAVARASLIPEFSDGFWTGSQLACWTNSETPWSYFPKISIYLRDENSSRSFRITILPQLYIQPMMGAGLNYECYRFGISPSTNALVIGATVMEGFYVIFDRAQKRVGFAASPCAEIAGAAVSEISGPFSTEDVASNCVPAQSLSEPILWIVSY
Procedure: The MCE assay reactions were carried out in a final volume of 20 μL per well in a 384-well microplate. A standard enzymatic reaction, initiated by the addition of 10 μL 2× substrate to 5 μL of 4× enzyme and […] of 4× compound, containing 12 nM human BACE1 extracellular domain, […] amyloid precursor protein beta secretase active site peptide (FAM-[…]-CONH2 (SEQ ID NO:55)), 50 mM NaOAc pH 4.4 and 0.1% CHAPS. The same reaction conditions were used for the extracellular domain of human BACE2 enzyme (5 nM) and the extracellular domain of Cathepsin D (6 nM, Calbiochem®). After incubation for 60 minutes at ambient temperature, the product and substrate in each reaction were separated using a 12-sipper microfluidic chip analyzed on an LC3000® (both, Caliper Life Sciences). The separation of product and substrate was optimized by choosing voltages and pressure using the manufacturer's optimization software. The separate buffer contained 100 mM HEPES pH 7.2, 0.015% Brij-35, 0.1% coating reagent #3, 10 mM EDTA and 5% DMSO. The separation conditions used a downstream voltage of −500V, an upstream voltage of −2250V and a screening pressure of −1.2 psi. The product and substrate fluorescence was excited at a wavelength of 488 nm and detected at a wavelength of 530 nm. Substrate conversion was calculated from the electropherogram using HTS Well Analyzer software (Caliper Life Sciences).

[4] = 30 mg/kg IP every 4 days, 3 doses
[5] = 100 mg/kg IP every 4 days, 3 doses

B1: YW412.8.31: affinity matured form of YW412.8 anti-BACE1 antibody (antibody, V domains shown)
VH: EVQLVESGGGLVQPGGSLRLSCAASGFTFLGYGIHWVRQAPGKGLEWVGWISPAGGSTDYADSVKGRFTISADTSKNTAYLQMNSLRAEDTAVYYCARGPFSPWVMDYWGQGTLVTVSS
VL: DIQMTQSPSSLSASVGDRVTITCRASQDVSTAVAWYQQKPGKAPKLLIYSASFLYSGVPSRFSGSGSGTDFTLTISSLQPEDFATYYCQQFPTYLPTFGQGTKVEIK
IC50 [1]: ~2.5 nM | serum PK kinetics ([2]; 1 or 10 mg/kg single IV, BALB/C mice, to 21 days): non-linear | serum PK kinetics ([2]; single dose, BACE1−/− mice): linear PK | concentration in brain [3, 4]: 0.9±0.6 μg/g and 5.9±4.3 nM | concentration in serum [3, 4]: 480 ± 210 µg/mL | concentration in brain [3, 5]: 3.0±1.6 μg/g and 20±10 nM | concentration in serum [3, 5]: 1500 ± 440 µg/mL | brain concentration as share of concentration in serum ([3]; 100 mg/kg single IP, 4 hours): ~0.07% | concentration in brain ([3]; 100 mg/kg single IP, 4 hours): 0.7±0.4 μg/g and 4.7±2.7 nM | concentration in serum ([3]; 100 mg/kg single IP, 4 hours): 1040±140 μg/mL and 6.9±0.9 μM | inhibition of human BACE2 (human BACE2): did not inhibit
